Measured values from the nanobody polyreactivity screen of Harvey et al. (2022).

Experiment: yeast display, Sf9 membrane polyspecificity reagent, FACS + sequencing; frameworks hold sequencing errors
Method in brief: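 Synthetic nanobody libraries on Saccharomyces cerevisiae BJ5465 were galactose-induced for 36–48 hours, stained 1 hour at 4 °C with 10% biotinylated, detergent-solubilized Sf9 membrane reagent and enriched on streptavidin microbeads. FACS then separated cells into low and high (top ~1%) gates by anti-HA (expression) and streptavidin (reagent binding) fluorescence. Genes were colony-PCR amplified, MiSeq 2 × 250 sequenced and CDR-length filtered. A clone's polyreactivity label is that of its gate of origin.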

Sequence	polyreactivity (PSR sort gate)
QVQLVESGGGLVQAGGSLRLSCAASGLIFAEYAMGWYRQAPGKERELVARITSGGSTDYADSVKGRFTISRDNAKNTVYLQMNSLKPEDTAVYYCAARYYSQDKNASTASDFDYWGQGTQVTVSS	low polyreactivity
QVQLVESGGGLVQAGGSLRLSCAASGLIFAGYAMGWYRQAPGKERELVAAITWRGGRTYADSVKGRFTISRDNAKNTVYLQMNSLKPEDTAVYYCAVRRWGTSFVEDDYWGQGTQVTVSS	low polyreactivity
QVQLVESGGGLVQAGGSLRLSCAASGLIFAQYAMGWYRQAPGKEREFVAAISYSGGNTYYADSVKGRFTISRDNAKNTVYLQMNSLKPEDTAVYYCAADYYWYHYAGWVGQYGYWGQGTQVTVSS	low polyreactivity
QVQLVESGGGLVQAGGSLRLSCAASGLIFAYNTMGWYRQAPGKERELVAGITSSGSTYYADSVKGRFTISRDNEKNTVYLQMNSLKPEDTAVYYCAAEWDDGRSWYWYYLVGFEYWGQGTQVTVSS	high polyreactivity
QVQLVESGGGLVQAGGSLRLSCAASGLIFAYYAMGWYRQAPGKERELVAAISWTGGSTYYADSVKGRFTISRDNAKNTVYLQMTSLKPEDTAVYYCNTVGKPGFYSWGQGTQVTVSS	high polyreactivity
QVQLVESGGGLVQAGGSLRLSCAASGLIFDDYAMGWYRQAPGKERELVAAISLSGGSTFYADSVKGRFTISRDNAKNTVYLQMNSLKAEDTAVYYCAAQARRAYVQTRMYYWGQGTQVTVSS	high polyreactivity
QVQLVESGGGLVQAGGSLRLSCAASGLIFDHNAMGWYRQAPGKERELVAAISYSGARTYYADSVKGRFTISRDNAKNTVYLQMYSLKPEDTAVYYCNAVINSHRRHVTYDYWGQGSQVTVSS	high polyreactivity
QVQLVESGGGLVQAGGSLRLSCAASGLIFDIYAMGWYRQAPGKERELVATISKRGGTTSYADSVKGRFTISRDNAKNTVYLQMNSLKPEDTAVYYCAATTLIAYDYWGQGTQVTVSS	high polyreactivity
QVQLVESGGGLVQAGGSLRLSCAASGLIFDPYAMGWYRQAPGKERELVAAITWSGDSTSYADSVKGRFTISRDNAKNTVYLQMNSLKPEDTAVYYCAADGWSRSWGYWVHYGYWGQGTQVTVSS	low polyreactivity
QVQLVESGGGLVQAGGSLRLSCAASGLIFDSYAMGWDRQAPRKERELVAAITYTGGSTYYADSVKGRFTISRDNAKNSVYLQMNSLKPEDTAVYYCAARRQRERYGYWGQGTQVTVSS	high polyreactivity
QVQLVESGGGLVQAGGSLRLSCAASGLIFDVYDMGWYRQAPGKERELVAAISTTGGSTFYADSVKGRFTISRDNAKNTVYLQMYSLKPEDTAVYYCNADWAPTGFSGGYPYDYWGQGTQVTVSS	high polyreactivity
QVQLVESGGGLVQAGGSLRLSCAASGLIFFNYYAMGWYRQAPGKERELVAAIRYGGGSTYYADSVKGRFTISRDNAKNTVYLLMNSLKPEDTAVDYCAARFKGYYRYGYWGQGTQVTVSS	high polyreactivity
QVQLVESGGGLVQAGGSLRLSCAASGLIFGFYAMGWYRQAPGKEWELVAAINSGGITYYADSVKGRFTISRDNAKNTVYLQMNSLKPEDTSVYYCAAVHSRRARYDYWGQGTQVTVSS	low polyreactivity
QVQLVESGGGLVQAGGSLRLSCAASGLIFGGNAMGWYRQAPGKERELVAAISRSTGRTYYADSVKGRFTISRDNEKNTVYLQMNSLKPEDTAVYYCNAVGYAFPSYDSWGQGTQVTVSS	high polyreactivity
QVQLVESGGGLVQAGGSLRLSCAASGLIFGGNAMGWYRQAPGKERELVAAISRSTGRTYYADSVKGRFTISRDTAKNTVYLQMNSLKPEDTAVYYCNAVGYAFPSYDSWGQGTQVTVSS	high polyreactivity
QVQLVESGGGLVQAGGSLRLSCAASGLIFGLYSMGWYRQAPGKERELVAAISYRTDSTYADSVKGRFTISRDNAKNTVYLQMNSLKPEDTAVYYCAADLRVSVRYYYWGQGTQVTVSW	low polyreactivity
QVQLVESGGGLVQAGGSLRLSCAASGLIFGPYAMGWYRQAPGKERELVAAISARGGSTRYADSVKGRFTISRDNAKNTVYLQMNSLKPEDTAVYYCAASTWYGYDYWGQGTQVTVSS	high polyreactivity
QVQLVESGGGLVQAGGSLRLSCAASGLIFGRNAMGWYRQAPGKERELVAAINNSGGTTYYADSVKGRFTISRDNAKNTVYLQMNSLKPEDTAVYYCNAYFRNWRYSPGGYWGQGTQVTVSS	high polyreactivity
QVQLVESGGGLVQAGGSLRLSCAASGLIFGSNAMGWYRQAPGKERELVAAISSGGTTKYADSVKGRFTISRDNAKNTVYLQMNSLKPEDTAVYYCAAQDYSYTTRFQDDYWGQGTQVTVSS	low polyreactivity
QVQLVESGGGLVQAGGSLRLSCAASGLIFGTYAMGWYREARGIERELVAAITSGGRTYYADSVKGRFTISRDNAKNTVYLQLNSLKPEATAVYYCAAVLSQWGAVFLYVLSTGLDYWGQGTQVTVSS	low polyreactivity
QVQLVESGGGLVQAGGSLRLSCAASGLIFGWYAMGWYRPEPGKEREFVASIRYGGGSTYYADSVKGRFTISRDNAKNTVYLQMNSLKPEDTAVYYCAADRYPWHLQYVEYDSDYWGQGTQVTVSS	low polyreactivity

Sequence	polyreactivity (PSR sort gate)
QVQLVESGGGLVQAGGSLRLSCAASGLIFGYYAMGWYRQAPGKEREFVAAISGTGGSTYYADSVKGRFTISRDNAKNTVYLQMNSLKPEDTAVYYCAARQGWWRFYAYDYWGQCTQVTVSS	high polyreactivity
QVQLVESGGGLVQAGGSLRLSCAASGLIFGYYAMGWYRQAPGKERELVAAITSSGASTYYADSVKGRFTISRDNAKNSVYLQMNSLKPEDTAVYYCNKYRYRSLGYDYWGQGTQVTVSS	high polyreactivity
QVQLVESGGGLVQAGGSLRLSCAASGLIFGYYAMGWYRQAPGKERELVAVISYSGGSTYYADSVKGRFTITRDNAKNTVYLQMNSLNPEDTAVYYCNTYGAYYRHTKEYGYWGQGTQVTVSS	high polyreactivity
QVQLVESGGGLVQAGGSLRLSCAASGLIFHRNAMGWYRQAPGKERELVAAITKTGGGTYYADSVKGRFTISLDNAKNTVYLQMNSLKPEDTAVYYCAADTQRTFYYWGQGTQVTVSS	low polyreactivity
QVQLVESGGGLVQAGGSLRLSCAASGLIFKRYAMGWYRQAPGKERELVAAISSGTRTYYADSVKGRFTISRDNAKNTVYLQMNSLKPEDTAVYYCAARLDYWGQGTQVTVSS	high polyreactivity
QVQLVESGGGLVQAGGSLRLSCAASGLIFKYYAMGWYRQAPGKERELVAAITGRGGSTYYADSVKGRFTISRDNAKNTVYLQMNSLKPEDTAVYYCARRRTYSFNPVTYDWGQGTQVTVSS	high polyreactivity
QVQLVESGGGLVQAGGSLRLSCAASGLIFLRNAMGWYRQAPGKERELVAAISRSGGSTYYADSVKGRFTISRDYAKNTVYLQMNSLKPDDTAVYYCAKYGYGGVIPGPDHYDYWGQGTQVTVSS	high polyreactivity
QVQLVESGGGLVQAGGSLRLSCAASGLIFNLYAMGWYRQAPGKEREFVATITGIGGSTYYADSVKGRFTISRDIAKNTVYLQMNSLKPDDTAVYYCAADAWFVPYNYWGQGTQVTVSS	low polyreactivity
QVQLVESGGGLVQAGGSLRLSCAASGLIFNLYAMGWYRQAPGKEREFVATITGIGGSTYYADSVKGRFTISRDNAKNTVYLQMNSLKPEDTAVYYCAADAWFLPYNDWGQGTQVTVSS	low polyreactivity
QVQLVESGGGLVQAGGSLRLSCAASGLIFNRYVMGWYRQARGKERELVAAITCSGDSTYYADSVKGRFTISRDNAKNTVYLQMNSLKPVDTAVYYCAAWDYRYTDREGDYWGPGTQVTVSS	high polyreactivity
QVQLVESGGGLVQAGGSLRLSCAASGLIFNTYAMGWYRQAPGKDRELVAAITDGGGTNYADSVKGRFTISRDNAKNTVYLQMNSLKPEDTAVYYCAARLASWPLTYDFQWYEYWGQGTQVTVSS	low polyreactivity
QVQLVESGGGLVQAGGSLRLSCAASGLIFNYYAMGWYRPAPGKERELVAAIYNGGSTYADSVKGRFTISRDNAKNTVYLQMNSLKPEDTAVYYCNTDDPDRDNDVKSIDYDYWGQGTQVTVSS	low polyreactivity
QVQLVESGGGLVQAGGSLRLSCAASGLIFNYYAMGWYRQAPGKEREFVAAISGRGGNTYYADSVKVRFTISRDNAKTTVYLQINSLKPEDTAVYYCAARRYYSNREYDYWGQGTQVTVSS	high polyreactivity
QVQLVESGGGLVQAGGSLRLSCAASGLIFPAYAMGWYRQAPGKERELVAAISYSGGRTYYADSVKGRVTISRDNAKNTVYLQMNSLKPEDTAVYYCNTGYWYVSLGSYDYYGEYDYWGQGTQVTVSS	high polyreactivity
QVQLVESGGGLVQAGGSLRLSCAASGLIFPGYAMGWYRQAPGKERELVAAISWSGGTTYYADSVKGRFTISRDNAKNTVYLQMNSLKPEDTAVYYCNAVYLQGYDYWGQGTQVTVSS	low polyreactivity
QVQLVESGGGLVQAGGSLRLSCAASGLIFPPNAMGWYRQAPGKERELVASITRSGVSTNYADSVKGRFTISRDNAKNTVYLQMNSLKPEDTAVYYCAAVIYSTYTIPNDEMGYWGHGTQVTVSS	low polyreactivity
QVQLVESGGGLVQAGGSLRLSCAASGLIFPRYAMGWYRQAPGKERELVAAITRGGSTYYADSVKGRFTISRDNAKNTVYLQMNSLKPEATAVYDCNAELPVHCSWYDYWGQGTQVTVSS	low polyreactivity
QVQLVESGGGLVQAGGSLRLSCAASGLIFPRYAMGWYRQAPGKERELVAAITRGGSTYYADSVKGRFTISRDNAKNTVYLQMNSLNPEDTAVYYCTAELPVHWSWYDYWGQGPQVTVSS	low polyreactivity
QVQLVESGGGLVQAGGSLRLSCAASGLIFPRYAMGWYRQAPGKVSELVAAITWSGGSTFYADSVKGRFTISRDTAKNTVYLQMNSLKPEDTAVYYCAAQDASERTYGYDGYYYWGQGTQVTVSS	low polyreactivity
QVQLVESGGGLVQAGGSLRLSCAASGLIFPRYGMGWYRQAPGKERELVAAISRSGGNTYYADSVKGRFTISRDNAKNTVYLQMNSLKPEDTAVYYCAAYFSTAPKSQYKLDYRGQGTQVTVSS	high polyreactivity
